According to article PMC6946597:
Like-named read-outs stand apart in the source and are kept apart here.

Assays:
[1] = molecular target: human COA6 isoform 3 (human); experiment: SEC
[2] = molecular target: human COA6 isoform 3 (human); experiment: SEC; remark: listed apart in the source

human COA6 isoform 3 (natural protein)
stoichiometry N [1]: 2
stoichiometry N [2]: 2
